# Data: the DeepSol protein solubility set
# Test: soluble on expression in E. coli; label from the status in PepcDB or PDB records
row,Sequence,soluble on expression in E. coli
1,MLSIVCPPLSAQWAENFDHITALTSPPWRGQIADFAIIKKQLKLYVEYPDDLNESRIAITVPYFKTTTWKGDVKLDFRPTINNYLYCYLYCYGEISDSEFDYVALRWGSGSKGVDLLDVRLRVLPSGESSIVRSDILIDGSAYPLGTKPFTSFTVTYAVGSGWQLWVNGANDTGNETVLIGSSSFDVESPFQSGGLGIDCFYTKSRSKAFSFDNLSVSEGAVSPPEEEEEPIPLGKPTLNELMANPLEGGSEYIELYNPTDKPVVPSKFAIGILRNGSYTTTTALPTVADTLYPGQYIVFAKKSEGVTDFYPQAQNVVTMSNLPQLANKGFTIGLFEEGLDQPLEEVVYSPKMLGEGNVTRRGVSLERISFETPASDPTNWAGGLPSAGYATPGYLNSQSSNADTTQLGLPNNETEGNGKSYLPPASIAEE,not soluble
2,VLSAIGIVPSAPVLVPELAGAAAAELADLGAAVIAAASLLPKSWIAVGTGRADDVVRPTDVGTFAGFGADVRVGLAPQDGDGVAVPVELPLCALLTAWVRGQARPEARAQVHVYASDHGSDAAVARGRQLRADIDREPDPIGVLVVADGLNTLTPRAPGGYDPDGAGMQRALDDALASGDLAVLTRLPAQVLGRVAFQVLAGLAEPGPRSAKEFYRGAPHGVGYFAGVWQP,not soluble
3,MGSDKIHHHHHHMRAVRLHAKWDPRPEFKLGPKDIEGKLTWLGSKVWRYPEVRVEEVPEPRIEKPTEIIIKVKACGICGSDVHMAQTDEEGYILYPGLTGFPVTLGHEFSGVVVEAGPEAINRRTNKRFEIGEPVCAEEMLWCGHCRPCAEGFPNHCENLNELGFNVDGAFAEYVKVDAKYAWSLRELEGVYEGDRLFLAGSLVEPTSVAYNAVIVRGGGIRPGDNVVILGGGPIGLAAVAILKHAGASKVILSEPSEVRRNLAKELGADHVIDPTKENFVEAVLDYTNGLGAKLFLEATGVPQLVWPQIEEVIWRARGINATVAIVARADAKIPLTGEVFQVRRAQIVGSQGHSGHGTFPRVISLMASGMDMTKIISKTVSMEEIPEYIKRLQTDKSLVKVTMLNE,not soluble
4,MDQKREALVGPITSSPASILELSIFYEFLKAQWCAFTIGSSEPPISPRQLNLLSLLIGPSNSDQEIPRDTVAVSWVYVGFEFGESCEQFGATDEQLRGHFEYQMICTNVQCIYFVEDGKKRRMAGVTWYLRNDEKSKNHEDYNMIAIYETIREKRFEEVQKIRKLEKEEALRRGGWLGEPTDEYTSTIFSHLKLLTLKDGRLAVFACNADGEEEKFAFNERTERYEVLEDVVEVEDRPSNYLLRII,not soluble
5,MGSDKIHHHHHHMIPPVPQKGRGTAHNPHNRFAPGHSVAEDDGWYQEVPQTQGTEVRIETAKSVISRNTSPDLPFDRSINPYRGCEHGCIYCYARPSHAYWDLSPGLDFETKLIAKTNAAEVLAQQLSKPGYVCAPINLGSNTDPYQPIEREQLLTRRLLEVLLRFRHPVTIVTKGSLVLRDLDLLAEMARQRLARVMISLTTLDDGLKRVLEPRAASPGARLRAIRVLREAGVPVGVLCSPMIPMINDSELERLLEAAKEAGAQSAAYMMLRLPLEVAPLFEQWLQDHYPQRAAHVLSLIRQSRGGELYDSRFGVRMRGEGVFAELLAQRFAKAMKRLDFEGREAQELDCSAFCPPGGQMALF,not soluble
6,SNAMKILLIGASGTLGSAVKERLEKKAEVITAGRHSGDVTVDITNIDSIKKMYEQVGKVDAIVSATGSATFSPLTELTPEKNAVTISSKLGGQINLVLLGIDSLNDKGSFTLTTGIMMEDPIVQGASAAMANGAVTAFAKSAAIEMPRGIRINTVSPNVLEESWDKLEPFFEGFLPVPAAKVARAFEKSVFGAQTGESYQVY,soluble
7,GGSVIVIDSKAAWDAQLAKGKEEHKPIVVDFTATWCGPCKMIAPLFETLSNDYAGKVIFLKVDVDAVAAVAEAAGITAMPTFHVYKDGVKADDLVGASQDKLKALVAKHAAA,soluble
8,MGSDKIHHHHHHMDVSITQTSADKIKAGKSGLLLISDNYDAFAARVLAARGAARTLDLMYYLWHDDHTGRLLLQEVVRAAQRGVRVRMLLDDVNPRKSDAAYLALSNHPNIELKLFNPSGIRARGLMRGAEVLLRLFALTRRMHNKAWIADDNIAIVGGRNVGDAYFDAAETNFRDLDMLLLGPAVQQTAQIFQTFWVCQDAKPIAELGAAAPGSHAPYFEGREEKTESTLLSGIRDKGSIAEFISASSNVHWVERVRVISDPPEKVRGWRPRSWLMKELLPIIQSARKRVEIVSPYFIPGKKGSKILGDLVDDGVQVAVLTNSLAATDVAAVHGAYANYRKRLLRMGVQLFELQPFSRQPKISVFGSKGASLHTKAFSVDNRIGFVGSFNFDPRSVSLNSEMGVLFEDENLVAELRHRFKSEIAPEASYRLELKNEVLRWHGSDEGRLQTYTREPEAAWFRRILAALVRHLPIESQL,not soluble
9,MGSDKIHHHHHHMSHVSLKDVQVLAPNFKRRLSGVTSTIVQLIPVQNRLGQKVGTIGPGLPPHLPHVRFRDLWRLWQNGPSGGPRIWHARRNLEMLPGIFMRDVLRMKVKLLFTSAAQRRHSAYTRFLISKMDAVVATSTRSGSFLEVPHRVVMHGVDTELFHPATGPEDTIAATGLPGHYLLGCFGRVRHQKGTDLFVRAMIELLPHYPQWTAVVSGRVTAEHKAFGDTLKADVAAAGLTDRIIFQGEVDDIKPWYRRLTLYVAPSRNEGFGLTPLEAMASETAVVASNAGAYEEMIVTGETGWVVGAGDYASLRDAIKTYLADPALAKAHASAGLAHVRSTFPLEKEATCLGEVYEALQRG,not soluble
10,MGSDKIHHHHHHMKTTSPSSYDEMLNADGSVRSAYAGYCKWYDEQPPDLLRRKGSEAEAFFRRTGITFNVYGNEDAEERLIPFDMVPRIITAQQWRKLSRGIEQRVRALNAFLHDLYHRQEIVRSGRLPVRLLKGNEAFLPEMVGFTPPGGVYTHIVGIDLVRTGEDDFMVLEDNARTPSGVSYMLENRETMMAMFPELFTRVRVREVSDYPRRLARSLAACAPPACDGKKPVVAVLTPGIYNSAYFEHAFLADQMGAELVEGSDLRVENGRIAMRTTRGYQPIDVLYRRVDDEYLDPLSFNPGSVLGVSGIMDVYRSGGITIANAPGTGIADDKAIYSFMPEIVEFYTGEKPILQNVPTWRCAEPDALAYVLDNLAELVVKEVHGSGGYGMLIGPTSSRKELAAFEAKLRARPENYIAQPTLSLSTVPILTKAGLAPRHVDLRPFVLVSPNGIDITPGGLTRVALKKGSLVVNSSQGGGTKDSWVLDD,not soluble
11,MECSQEDVVNDFIALEKIGSEVDINLDGVIKSKECSNTNEADIISNLITAIEESLSCTSVCTAVSLETVAQKLDAYADPSLNTQMSFSTASDLSSMEQDYVKASDDPFDLNHQPSPLQVWRDQGKITGFQMMCDDQKVTVVDSLECLAQSEQHLEPVYFDPRVNLAIPCPPDDFEILEDYGSTSNASVNSDDASTAELGPTSEEFEEWVRKIEQNY,not soluble
12,MTAAMYDLMDYDEVLEKFDPVMGLEVHVELATETKMFSAPSAHFGAEPNSNVDPVSLGLPGALPVVNAKGVEWAIKIGLALNCKIAESSRFARKNYFYPDQPKNYQISQYDEPIAYDGYLDVVLDDGTPWRVEIERAHMEEDTGKLTHLGGADGRIHGATASLVDCNRAGIPLIEIVTKPIEGAGERAPEVARAYVGALRDLVKALGVSDARMDQGSMRCDANVSLRPVGTVEFGTRTETKNINSLKSVEQAVRYEMQRQAQVLEDGGEIVQETRHYQETDGSTSKGRPKETAEDYRYFNDPDLPPVIAPKEWVEEIRATLPELPWIRRARIQKEWGLKDEEMRDLVNAGALDLIVETVEAGASASEARSWWVAYLSQKANESGVELDSLSITPQQVARVAALVKEGKLTNKLARQAVDGVLAGEGDVDEVVAARGLEVVRDDGAIEKAVDEALAANPDIVEKYKAGNTKVTGAIVGAVMKATRGKADPAQVNKLIAEKLA,not soluble
13,MTFLDKIKQGCLDGWAKYKILPSLTAAQAILESGWGKHAPHNALFGIKADASWTGKSFNTKTQEEYQAGVITDIVDRFRAYDSWDESIADHGQFLVDNPRYQSVIGEADYKKACHAIKDAGYATASGYAELLIQIIEENNLQKWDKEAIVRKEKQMINSQCREVIEFFINLANAGMGVDKDSFAGWQCADVPCYAAKHWFDVDLWGNAIDLLDSAAAVGWEVHRMPTDANPLTGAFFVQSVPYHQFGHTGIVIEDSDGYTMRTVEQNIDGNPDALYVGAPARFNTRDFTGVIGWFYPPYQGDTVTQPVSTEPQTSETIVETAKTGTFTLDVAEINIRRWPSLASEVVGSYKQGDTVSFDNEGYANGYYWISYVGGSGMRNYLGIGQTDKDGNRISLWGKLNLEHHHHHH,soluble
14,RVLEDLGWYVAHNIPPQIILELIDMCAREDSPVDKVAVVCDVRSREFRGSLTQVVSELRDKQLDPTVLFLEARDEVLIKRFDNVRRTHPLQGSQTLQVGIERERTVLSPVKEDASVVIDTSDLSVHDLRRAIESSFRTIATRTQHVTIESFGFKHGSPRDADFVVDVRFLPNPFWVPELRPFRGVDKPVSDYVLSQKGAEEFLNNFVDMLKDMLPGYRHEGKNFITIGVGCTGGHHRSVAVSEELAKRIADQTTLDVSVVHRDINRH,not soluble
15,MARPANTLQSLAELNGKAPSRRQLNIQHWNTAEGARVLFVEARELPMFDLRVTFAAGSSQDGGTPGLAALTNAMLNEGVAGKDVTAIAEGFEGLGADFGNGSYRDMAVASLRSLSAKDKREPALKLFTEVAGKPTFPEDALKRIKNQMLAGFEYEKQNPGKIAGKALFGKLYGDHPYAHPSDGTAESITGISLAQLRAFHAKAYTGGNAVIALVGDLSRAEAEAIAAQVSAGLPKGPALAAPAQPADAKAGLTHIDFPSKQTHLMLAELGIDRQDPDWPALSMGNQILGGGAFGTRLMSEVREKRGLTYGVYSVFSPMQVRGPFMINLQTRAELSEGTLKLVQGILADYLKTGPTQQELDDAKRELAGSFPLSNASNASIVGQLGAIGFYNLPLTWLEDFMQQSQALTVEQVKAAMNKHLSADKLVIVTVGPKVPQKPLEHHHHHH,not soluble
16,MNNREKEILAILRRNPLIQQNEIADMLQISRSRVAAHIMDLMRKGRIKGKGYILTEQEYCVVVGTINMDIRGMADIRYPQSASHPGTIHCSAGGVGRNIAHNLALLGRDVHLLSVIGDDFYGEMLLEETRRAGVNVSGCVRLHGQSTSTYLAIANRDDQTVLAINDTHLLEQLTPQLLNGSRDLLRHAGVVLADCNLTAEALEWVFTLADEIPVFVDTVSEFKAGKIKHWLAHIHTLKPTLPELEILWGQAITSDADRNTAVNALHQQGVQQLFVYLPDESVYCSEKDGEQFLLTAPAHTTVDSFGADDGFMAGLVYSFLEGYSFRDSARFAVACAAISRASGSLNNPTLSADNALSLVPMV,not soluble
17,MTLLLPRRRFSALLDHIKNWTSSIRADKQYRSFSTGDLVSPSQPSAFEPDFMEMEFGATPTTSSLPSHFDDNDLVPVEFKKSGVKLIPQGTRKAEKAKKFGSFEELSKVKLEDIHRAQSWFFVDVDPKSAERILMSNGFSDSSFLISFFRQKYVLSIWRKTKVEHLVIRNYQKKNGTMAFQLDIDRSFKNLVELTEYYTKNKSYVLCTKLSKGVSRPRRNPDTRTRA,not soluble
18,MTIGFLGTGKISASMVDGLMRSVFDVPSIILSPRNAKRAEHLSRNYDKVIIAENNQALLDVCDCVFLCLPNQIAEEVLRSLRFRPEQLVVSVLAMAKAAEVEEWINHKVYRAVPLPFVAECKNLTPIYPDHPFLRSLFDALGGTLVLDAEEQFNLFMTAGSLMGVYFNFIETAHKWFITQGLKKQQSADFLAMMFGNLTDEMRKIMDQDCSTSLDFALLEKEFSTKGGTNELLSHCFSHQGGRSALTTALETTLQKINAPFTY,not soluble
19,MTVIETPVKSVICMTSLQLSNFIKLDALSHVVGITSTRHLFNKEMNERLKQGKTAKIGIEGNFDNEVIMSVNPDVIFISPFKRGGYDAMREVGIPLVPHLGYKEMTPLGQAEWIKFIGLFIGEEETANRKFAAIEKHYNELKERVAHVKKRPVLEHHHHHH,not soluble
20,PFINIKLVPENGGPTNEQKQQLIEGVSDLMVKVLNKNKASIVVIIDEVDSNNYGLGGESVHHLRQKN,soluble
